Measurements: IntAct's records for PubMed 29892012

B1: Small glutamine-rich tetratricopeptide repeat-containing protein beta (Homo sapiens), Q96EQ0 (parent)
chain: MSSIKHLVYAVIRFLREQSQMDTYTSDEQESLEVAIQCLETVFKISPEDTHLAVSQPLTEMFTSSFCKNDVLPLSNSVPEDVGKADQLKDEGNNHMKEENYAAAVDCYTQAIELDPNNAVYYCNRAAAQSKLGHYTDAIKDCEKAIAIDSKYSKAYGRMGLALTALNKFEEAVTSYQKALDLDPENDSYKSNLKIAEQKLREVSSPTGTGLSFDMASLINNPAFISMAASLMQNPQVQQLMSGMMTNAIGGPAAGVGGLTDLSSLIQAGQQFAQQIQQQNPELIEQLRNHIRSRSFSSSAEEHS
B2: E3 ubiquitin-protein ligase LNX (Homo sapiens), Q8TBB1 (parent)
chain: MNQPESANDPEPLCAVCGQAHSLEENHFYSYPEEVDDDLICHICLQALLDPLDTPCGHTYCTLCLTNFLVEKDFCPMDRKPLVLQHCKKSSILVNKLLNKLLVTCPFREHCTQVLQRCDLEHHFQTSCKGASHYGLTKDRKRRSQDGCPDGCASLTATAPSPEVSAAATISLMTDEPGLDNPAYVSSAEDGQPAISPVDSGRSNRTRARPFERSTIRSRSFKKINRALSVLRRTKSGSAVANHADQGRENSENTTAPEVFPRLYHLIPDGEITSIKINRVDPSESLSIRLVGGSETPLVHIIIQHIYRDGVIARDGRLLPGDIILKVNGMDISNVPHNYAVRLLRQPCQVLWLTVMREQKFRSRNNGQAPDAYRPRDDSFHVILNKSSPEEQLGIKLVRKVDEPGVFIFNVLDGGVAYRHGQLEENDRVLAINGHDLRYGSPESAAHLIQASERRVHLVVSRQVRQRSPDIFQEAGWNSNGSWSPGPGERSNTPKPLHPTITCHEKVVNIQKDPGESLGMTVAGGASHREWDLPIYVISVEPGGVISRDGRIKTGDILLNVDGVELTEVSRSEAVALLKRTSSSIVLKALEVKEYEPQEDCSSPAALDSNHNMAPPSDWSPSWVMWLELPRCLYNCKDIVLRRNTAGSLGFCIVGGYEEYNGNKPFFIKSIVEGTPAYNDGRIRCGDILLAVNGRSTSGMIHACLARLLKELKGRITLTIVSWPGTFL
partner: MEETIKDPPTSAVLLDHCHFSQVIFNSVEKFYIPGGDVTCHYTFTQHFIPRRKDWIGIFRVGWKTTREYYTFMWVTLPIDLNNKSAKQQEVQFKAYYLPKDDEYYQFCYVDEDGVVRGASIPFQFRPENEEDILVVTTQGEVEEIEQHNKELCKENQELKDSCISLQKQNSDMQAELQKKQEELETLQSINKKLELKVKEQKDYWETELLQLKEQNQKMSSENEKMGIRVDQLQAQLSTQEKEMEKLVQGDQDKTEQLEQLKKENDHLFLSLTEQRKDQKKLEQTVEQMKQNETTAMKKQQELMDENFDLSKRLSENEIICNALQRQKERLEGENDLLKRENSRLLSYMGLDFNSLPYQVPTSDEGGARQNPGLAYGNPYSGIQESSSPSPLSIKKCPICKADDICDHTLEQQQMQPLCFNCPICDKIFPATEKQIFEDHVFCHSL
B3: Myotubularin-related protein 9 (Homo sapiens), Q96QG7 (parent)
chain: MEFAELIKTPRVDNVVLHRPFYPAVEGTLCLTGHHLILSSRQDNTEELWLLHSNIDAIDKRFVGSLGTIIIKCKDFRIIQLDIPGMEECLNIASSIEALSTLDSITLMYPFFYRPMFEVIEDGWHSFLPEQEFELYSSATSEWRLSYVNKEFAVCPSYPPIVTVPKSIDDEALRKVATFRHGGRFPVLSYYHKKNGMVIMRSGQPLTGTNGRRCKEDEKLINATLRAGKRGYIIDTRSLNVAQQTRAKGGGFEQEAHYPQWRRIHKSIERYHILQESLIKLVEACNDQTHNMDRWLSKLEASNWLTHIKEILTTACLAAQCIDREGASILIHGTEGTDSTLQVTSLAQIILEPRSRTIRGFEALIEREWLQAGHPFQQRCAQSAYCNTKQKWEAPVFLLFLDCVWQILRQFPCSFEFNENFLIMLFEHAYASQFGTFLGNNESERCKLKLQQKTMSLWSWVNQPSELSKFTNPLFEANNLVIWPSVAPQSLPLWEGIFLRWNRSSKYLDEAYEEMVNIIEYNKELQAKVNILRRQLAELETEDGMQESP
partner: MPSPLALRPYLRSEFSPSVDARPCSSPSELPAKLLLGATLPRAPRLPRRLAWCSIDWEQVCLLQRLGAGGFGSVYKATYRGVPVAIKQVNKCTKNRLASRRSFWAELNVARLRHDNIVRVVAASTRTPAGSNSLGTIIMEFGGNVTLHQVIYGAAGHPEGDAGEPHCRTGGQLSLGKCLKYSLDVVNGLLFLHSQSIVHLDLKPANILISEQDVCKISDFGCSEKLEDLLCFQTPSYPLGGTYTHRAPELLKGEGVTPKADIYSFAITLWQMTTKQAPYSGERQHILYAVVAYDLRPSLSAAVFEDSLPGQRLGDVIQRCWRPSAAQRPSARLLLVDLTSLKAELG
B4: Coiled-coil alpha-helical rod protein 1 (Homo sapiens), Q8TD31 (parent)
chain: MFPPSGSTGLIPPSHFQARPLSTLPRMAPTWLSDIPLVQPPGHQDVSERRLDTQRPQVTMWERDVSSDRQEPGRRGRSWGLEGSQALSQQAEVIVRQLQELRRLEEEVRLLRETSLQQKMRLEAQAMELEALARAEKAGRAEAEGLRAALAGAEVVRKNLEEGSQRELEEVQRLHQEQLSSLTQAHEEALSSLTSKAEGLEKSLSSLETRRAGEAKELAEAQREAELLRKQLSKTQEDLEAQVTLVENLRKYVGEQVPSEVHSQTWELERQKLLETMQHLQEDRDSLHATAELLQVRVQSLTHILALQEEELTRKVQPSDSLEPEFTRKCQSLLNRWREKVFALMVQLKAQELEHSDSVKQLKGQVASLQEKVTSQSQEQAILQRSLQDKAAEVEVERMGAKGLQLELSRAQEARRRWQQQTASAEEQLRLVVNAVSSSQIWLETTMAKVEGAAAQLPSLNNRLSYAVRKVHTIRGLIARKLALAQLRQESCPLPPPVTDVSLELQQLREERNRLDAELQLSARLIQQEVGRAREQGEAERQQLSKVAQQLEQELQQTQESLASLGLQLEVARQGQQESTEEAASLRQELTQQQELYGQALQEKVAEVETRLREQLSDTERRLNEARREHAKAVVSLRQIQRRAAQEKERSQELRRLQEEARKEEGQRLARRLQELERDKNLMLATLQQEGLLSRYKQQRLLTVLPSLLDKKKSVVSSPRPPECSASAPVAAAVPTRESIKGSLSVLLDDLQDLSEAISKEEAVCQGDNLDRCSSSNPQMSS
partner: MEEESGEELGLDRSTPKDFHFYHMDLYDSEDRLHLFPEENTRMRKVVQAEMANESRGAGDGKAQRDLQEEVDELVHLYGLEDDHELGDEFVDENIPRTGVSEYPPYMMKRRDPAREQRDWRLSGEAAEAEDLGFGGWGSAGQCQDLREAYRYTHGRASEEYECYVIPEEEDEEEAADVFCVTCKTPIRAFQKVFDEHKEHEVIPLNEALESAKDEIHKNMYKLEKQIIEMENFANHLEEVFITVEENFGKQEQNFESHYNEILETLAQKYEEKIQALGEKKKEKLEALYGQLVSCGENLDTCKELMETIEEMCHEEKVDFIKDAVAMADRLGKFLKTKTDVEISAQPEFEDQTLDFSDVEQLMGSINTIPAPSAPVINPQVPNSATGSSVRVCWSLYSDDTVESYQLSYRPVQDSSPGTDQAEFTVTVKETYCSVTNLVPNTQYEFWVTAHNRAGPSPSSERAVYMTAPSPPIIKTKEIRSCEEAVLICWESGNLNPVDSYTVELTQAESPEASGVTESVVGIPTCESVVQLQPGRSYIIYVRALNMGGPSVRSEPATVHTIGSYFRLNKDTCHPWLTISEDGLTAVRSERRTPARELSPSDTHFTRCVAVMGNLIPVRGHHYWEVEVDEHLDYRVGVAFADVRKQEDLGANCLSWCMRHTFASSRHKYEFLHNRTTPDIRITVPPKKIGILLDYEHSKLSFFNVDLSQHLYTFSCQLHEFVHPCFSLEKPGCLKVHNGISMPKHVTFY

Variants of: B1
Details: with fbln4_human EFEMP2, O95967
fbln4_human EFEMP2, O95967, sequence (O95967 whole entry): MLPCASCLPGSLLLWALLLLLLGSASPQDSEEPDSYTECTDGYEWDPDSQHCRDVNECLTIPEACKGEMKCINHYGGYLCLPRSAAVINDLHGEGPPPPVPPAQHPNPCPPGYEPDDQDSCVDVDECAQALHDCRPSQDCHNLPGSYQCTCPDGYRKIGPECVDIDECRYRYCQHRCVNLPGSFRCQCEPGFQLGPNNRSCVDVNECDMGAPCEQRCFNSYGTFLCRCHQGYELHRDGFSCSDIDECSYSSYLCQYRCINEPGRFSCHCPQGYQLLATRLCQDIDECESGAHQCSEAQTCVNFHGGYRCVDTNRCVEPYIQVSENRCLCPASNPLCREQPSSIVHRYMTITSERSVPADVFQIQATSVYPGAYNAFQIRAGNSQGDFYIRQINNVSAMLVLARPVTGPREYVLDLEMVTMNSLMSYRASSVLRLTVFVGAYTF

Variant | effect of a mutation on the interaction
R292W | with no effect

Variants of: B1
Details: with il6rb_human IL6ST

Variant | effect of a mutation on the interaction
R292W | disrupting interaction strength

Variants of: B2
Details: with caco2_human CALCOCO2, Q13137

Variant | effect of a mutation on the interaction
E295K | disrupting interaction strength

Variants of: B3
Details: with mos_human MOS

Variant | effect of a mutation on the interaction
R359S | with no effect

Variants of: B4
Details: with fsd2_human FSD2, A1L4K1

Variant | effect of a mutation on the interaction
W337R | with no effect
